What all share (experiment): ELISA; plates coated with synthetic peptide (10 µg/ml, carbonate buffer pH 9.6); increasing concentrations of recombinant NTF, 2 h, room temperature; anti-HIS detection; apparent Kd
A general note: An ELISA detects its analyte on a solid surface through an enzyme-linked reagent.

For assay [1], the target named is NS5A NLS synthetic peptide (fused to penetratin) (hepatitis C virus | not stated).
Assay [2] addresses SV40 NLS synthetic peptide (fused to penetratin) (SV40 | not stated).
Assay [3] concerns the target NS3 NLS 2 synthetic peptide (fused to penetratin) (hepatitis C virus | not stated).
Assay [4] deals with Core NLS 4 synthetic peptide (fused to penetratin) (hepatitis C virus | not stated).

In the case of “recombinant IPOA5 (importin α5/kap α1), P52294 1-538 (natural protein; other documents disagree on this pair)”, the Kd in assay [1] turned out to be 7630 nM; in assay [2], 27.1 nM; in assay [3], 36.6 nM; in assay [4], 518 nM.

Values taken from publication PMC4259358, “Functional Characterization of Nuclear Localization and Export Signals in Hepatitis C Virus Proteins and Their Role in the Membranous Web” (PLoS ONE, 2014).
